Patent US20050288492A1 (MEDICAL RESEARCH COUNCIL, published 2005)
Changes are numbered by the printed parent chain.

B1: anti-RAS scFv I21 (scFv)
scFv: EVQLLESGGGLVQPGGSLRLSCAASGFTFSSYAMSWVRQAPGKGLEWVSTISYGGSNTNYADSVKARFTISRDNSKNTLYLQMNSLRAEDTAVYYCAKGNNAFDYWGQGTLVTVSSGGGGSGGGGSGGGGSTDIQMTQSPSSLSASVGDRVTITCRASQSISSYLNWYQQKPGKAPKLLIYNASALQSGVPSRFSGSGSGTDFTLTISSLQPEDFATYYCQQYTSTPRTFGQGTKVEIKR
notes: also called ICAb I21
B2: anti-RAS scFv33 (scFv)
scFv: QVQLVEAGGGLVQPGGSLRLSCAASGFSFSTFSMNWVRQAPGKGLEWVSYISSSGRTIYYADSVKGRFTISRDNAKNSLYLQMNSLRDEDTAVYYCARGRFFDYWGQGTLVTVSSGGGGSGGGGSGGGGSDIVMTQSPSFLSASVGDRVTITCRASQSISRYLNWYQQKPGKAPKLLIYAASSLQSGVPSRFSGSGSGTDFTLTISSLQPEDFAIYYCQQSYSTLLTFGGGTKLEIKR
notes: ELISA and BIAcore: purified from periplasm with C-terminal His6-tag and myc-tag; Two-hybrid: fused to VP16 AD; Co-location: with nls and myc-tag; also called ICAb 33
B3: anti-RAS scFv J48 (scFv)
scFv: B2 scFv with T31Y, F32L, S33Y
notes: Same formats as scFv33 (His6/myc purified; VP16 fusion; nls-myc)
B4: IDab anti-RAS #3 (other)
VH: QVQLVESGGGLVQPGGSLRLSCAASGFTFSSYAMHWVRQAPGKGLEWVSVISKLTHHTYYADSVKGRFTISRDNSKNTLYLQMNSLRAEDTAVYYCARGVQGYVHGLKGNWFDYWGQGTLVTVSS
notes: also called anti-RAS clone #3; clone 3
B5: IDab anti-RAS #6 (other)
VH: EVQLLESGGGLVQPGGSLRLSCAASGFSFSTFSMNWVRQAPGKGLEWVSYISRTSKTIYYADSVKGRFTISRDNSKNTLYLQMNSLRAEDTAVYYCARGRFFDYWGQGTLVTVSS
B6: IDab 33 (single VH domain of anti-RAS scFv33) (other)
VH: B5 VH with E1Q, L5V, S7A, R53S, T54S, S55G, K56R, S75A, T78S, A88D
notes: also called 33VH; VH from intrabody anti-RAS scFv33
B7: IDab anti-RAS #12 (other)
VH: B5 VH with T31V, F32W, S33A, N35S

Legend:
[1] = target: T1, Recombinant activated HRAS (G12V; residues 1-166), GppNp-bound (human, UniProt P01112 1-166, loaded with 5'-guanylylimidodiphosphate (GppNp), a non-covalent nucleotide); assay: SPR (BIAcore 2000), HRASG12V-GppNp immobilised (about 1500 RU), purified scFv as analyte, Example 4
T1 construct: range 1-166; Antigen of the ELISA and BIAcore assays; also called HRASG12V-GppNp; RASG12V-GppNp

[2] = target: T1, Recombinant activated HRAS (G12V; …); assay: SPR, BIAcore 2000; HRASG12V-GppNp immobilised, purified scFv injected; BIAevaluation 2.1
[3] = target: β-galactosidase (non-relevant antigen bait in yeast) (UniProt P00722 1-1024 = β-galactosidase, limits assumed); assay: yeast two-hybrid, scFv-VP16 prey (data not shown)
[4] = target: T2, LexA DBD (made from the empty pBTM116 vector) (UniProt P0A7C2 1-202); assay: yeast two-hybrid, scFv-VP16 prey (data not shown)
T2 construct: domain: LexA DBD; Yeast bait control
T2 sequence (looked up): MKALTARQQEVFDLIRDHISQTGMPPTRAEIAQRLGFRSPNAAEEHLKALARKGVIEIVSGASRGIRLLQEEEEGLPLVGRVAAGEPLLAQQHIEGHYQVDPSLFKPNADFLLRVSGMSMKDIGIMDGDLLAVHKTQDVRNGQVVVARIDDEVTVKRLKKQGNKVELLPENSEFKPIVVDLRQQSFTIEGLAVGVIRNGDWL

BSA = target: T3, BSA (bovine, UniProt P02769); assay: ELISA; BSA coated at 30 mg/ml, purified His-tagged scFv, detection with HRP anti-polyhistidine, absorption 450-650 nm
T3 construct: coated on the ELISA plate at 30 mg/ml as control antigen; also called bovine serum albumin

[5] = target: T1, Recombinant activated HRAS (G12V; …); assay: SPR (BIAcore 2000), Example 12
[6] = target: T1, Recombinant activated HRAS (G12V; …); assay: SPR (BIAcore 2000), HRASG12V-GppNp immobilised (about 1500 RU), purified scFv as analyte, Example 4; Example 4, BIAcore, FIG. 6B
[7] = target: T1, Recombinant activated HRAS (G12V; …); assay: SPR (BIAcore 2000), purified His-tagged fragment on RAS antigen
[8] = target: T4, Gal4 DBD fused to HRASG12V (codons 1-166) (mammalian bait from pM1-HRASG12V) (UniProt P04386 1-147; P01112 1-166); assay: cell-based or functional assay
[9] = target: HRASG12V expressed in NIH3T3 cells from pZIPneoSV(X)-HRASG12V (UniProt P01112 1-186, limits assumed); assay: cell-based or functional assay
[10] = target: T4, Gal4 DBD fused to HRASG12V (codons …); assay: COS7 luciferase reporter with HRAS, KRAS or NRAS (data not shown)

Binder	Kd [1] [nM]	Kd [2] [nM]	koff [2] [s⁻¹]	kon [2] [M⁻¹ s⁻¹]	binding result [3]	binding result [4]	binding result (BSA)	Kd [5] [nM]	Kd [6] [nM]	koff [7] [s⁻¹]	kon [7] [M⁻¹ s⁻¹]	luciferase reporter activation in COS7 cells [8] [fold]	transforming activity in NIH3T3 cells, relative to HRASG12V alone [9] [%]	binding result [10]
B1	2160	1310	0.0212	16700	no binding	no binding	no binding (tested: 450 ng per well (legend))							
B2		9.97	0.00113	176000	no binding	no binding	no binding (tested: 450 ng per well (legend))	~10	1.39	0.00113	176000	> 10		
B3		2.6	0.00482	1.87e+06	no binding	no binding	no binding (tested: 450 ng per well (legend))		3.63			> 10		
B4								~180		0.00104	5660			
B5													< 10	
B6								~90		0.0144	12500			
B7								~26						binds
